Results reported in US20160052997A1.

Biological target: HA of A/CA/04/09 (H1N1) virus (Influenza A virus A/CA/04/09 (H1N1))
Assay: cell-based or functional assay

Substance CT-P27 has an EC50, microneutralization test of 0.62 µg/mL.
